Measurements as given in paper PMC8163392, “Interrogating surface versus intracellular transmembrane receptor populations using cell-impermeable SNAP-tag substrates†” (Chemical Science, 2020).

Molecular target: the molecule itself
Experiment: single molecule pulldown (SiMPull) with counting of photobleaching steps; surface receptors labelled on live cells with 1 uM SBG-JF549; cells lysed in 1.2% IGEPAL, lysate diluted in 0.1% IGEPAL; receptors captured at low density by biotinylated anti-HA antibody on NeutrAvidin/PEG coverslips; TIRF imaging

B1: HA-SNAP-metabotropic glutamate receptor 2 (receptor, UniProt P31421 19-872, looked up)
chain: EGPAKKVLTLEGDLVLGGLFPVHQKGGPAEECGPVNEHRGIQRLEAMLFALDRINRDPHLLPGVRLGAHILDSCSKDTHALEQALDFVRASLSRGADGSRHICPDGSYATHSDAPTAVTGVIGGSYSDVSIQVANLLRLFQIPQISYASTSAKLSDKSRYDYFARTVPPDFFQAKAMAEILRFFNWTYVSTVASEGDYGETGIEAFELEARARNICVATSEKVGRAMSRAAFEGVVRALLQKPSARVAVLFTRSEDARELLAATQRLNASFTWVASDGWGALESVVAGSERAAEGAITIELASYPISDFASYFQSLDPWNNSRNPWFREFWEERFHCSFRQRDCAAHSLRAVPFEQESKIMFVVNAVYAMAHALHNMHRALCPNTTHLCDAMRPVNGRRLYKDFVLNVKFDAPFRPADTDDEVRFDRFGDGIGRYNIFTYLRAGSGRYRYQKVGYWAEGLTLDTSFIPWASPSAGPLPASRCSEPCLQNEVKSVQPGEVCCWLCIPCQPYEYRLDEFTCADCGLGYWPNASLTGCFELPQEYIRWGDAWAVGPVTIACLGALATLFVLGVFVRHNATPVVKASGRELCYILLGGVFLCYCMTFVFIAKPSTAVCTLRRLGLGTAFSVCYSALLTKTNRIARIFGGAREGAQRPRFISPASQVAICLALISGQLLIVAAWLVVEAPGTGKETAPERREVVTLRCNHRDASMLGSLAYNVLLIALCTLYAFKTRKCPENFNEAKFIGFTMYTTCIIWLAFLPIFYVTSSDYRVQTTTMCVSVSLSGSVVLGCLFAPKLHIILFQPQKNVVSHRAPTSRFGSAAPRASANLGQGSGSQFVPTVCNGREVVDSTTSSL
modifications: JF549 (two-colour experiment: JF549 or JF646) covalently attached to the SNAP-tag
notes: metabotropic glutamate receptor 2 (mGluR2), class C GPCR; The rat receptor is my surmise; also called HA-SNAP-mGluR2; SNAP-mGluR2; source: HEK 293T, transfected, in lysate (1.2% IGEPAL); not shown: SNAP-tag, N-terminal, kept
  stoichiometry N: 2
